Data taken from publication PMC6172466.

Target: FlAsH-tagged K63-linked diubiquitin (UniProt P0CG48)
Assay: fluorescence polarisation; FlAsH-tagged K63-linked diUb (diluted to 80 nM, mixed 1:1) with serially diluted OTUD1; 50 mM Tris, 50 mM NaCl, 0.1% β-mercaptoethanol, pH 7.6; room temperature, 1 h

Kd: 40 µM
B1: OTUD1 catalytic domain (residues 287-435) C320A (domain or fragment)
chain: DEKLALYLAEVEKQDKYLRQRNKYRFHIIPDGNALYRAVSKTVYGDQSLHRELREQTVHYIADHLDHFSPLIEGDVGEFIIAAAQDGAWAGYPELLAMGQMLNVNIHLTTGGRLESPTVSTMIHYLGPEDSLRPSIWLSWLSNGHYDAV
